T1: wild-type human p40 polypeptide (human, UniProt P29460 23-328)
T1 construct: Secreted from COS-7 or 293 cells co-transfected with a p35 nucleic acid; also called wt-p40
T1 sequence: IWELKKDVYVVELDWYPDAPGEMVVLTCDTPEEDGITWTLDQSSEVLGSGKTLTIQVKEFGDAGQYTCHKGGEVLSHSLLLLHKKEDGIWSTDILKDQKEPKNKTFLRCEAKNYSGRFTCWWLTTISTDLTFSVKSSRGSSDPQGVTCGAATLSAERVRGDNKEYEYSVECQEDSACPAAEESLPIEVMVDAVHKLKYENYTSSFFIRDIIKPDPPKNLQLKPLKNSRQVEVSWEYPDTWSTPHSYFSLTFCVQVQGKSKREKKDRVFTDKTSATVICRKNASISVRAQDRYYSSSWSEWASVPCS

T2: modified p35 polypeptide R2-571 with C-terminal EHtag
T2 construct: Recombinant (shuffled) p35 variant with the EHtag fused to its C-terminus; also called R2-571-EHtag
T2 chain: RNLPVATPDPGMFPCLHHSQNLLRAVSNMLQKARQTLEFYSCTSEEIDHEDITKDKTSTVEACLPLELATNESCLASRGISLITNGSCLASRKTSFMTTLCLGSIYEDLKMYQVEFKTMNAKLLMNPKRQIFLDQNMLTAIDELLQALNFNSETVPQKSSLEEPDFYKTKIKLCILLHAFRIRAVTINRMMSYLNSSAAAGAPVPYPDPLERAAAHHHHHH

B1: wild-type human p35 polypeptide (ligand)
chain: RNLPVATPDPGMFPCLHHSQNLLRAVSNMLQKARQTLEFYPCTSEEIDHEDITKDKTSTVEACLPLELTKNESCLNSRETSFITNGSCLASRKTSFMMALCLSSIYEDLKMYQVEFKTMNAKLLMDPKRQIFLDQNMLAVIDELMQALNFNSETVPQKSSLEEPDFYKTKIKLCILLHAFRIRAVTIDRVTSYLNAS
notes: Secreted from COS-7 or 293 cells co-transfected with a p40 nucleic acid; also called wt-p35
B2: modified p40 polypeptide A3-48 (ligand)
chain: IWELEKNVYVVELDWYPDAPGEMVVLACDTPEEDGITWTSDQSSEVLGTGKTLTIHVKEFGDAGQYTCHKGGKVLSRSLLLLHKKEDGIWSTDILKDQKEPKNKSFLKCEAKNYSGRFTCWWLTTISTDLTFSVKSSRGSTDPHGVTCGTATLSEDLGEYKKYRVECQEGSACPAAEESLPIEVVLEAVHKLKYENYTSSFFIRDIIKPDPPKNLQLRPLKNSRQVEVNWEYPDTWSTPHSYFSLTFCVQVQGRNKREKKLFMDQTSAKVTCHKDAKIRVQARDRYYSSSWSDWASVSCG
B3: modified p40 polypeptide C2-22 (ligand)
chain: IWELKKDVYVVELDWYPNAPGETVVLTCDTPEEDGITWTSDQSSEVLGTGKTLTIHVKEFGDAGQYTCRKGGEALSRSLLLLHKKEDGIWSTDILKDQKEPKNKSFLKCEAKNYSGRFTCWWLTTISTDLKFSVKSSRGSTDPRGVTCGTATLSEDLGEYKKYRVECQEGSACPAAEESLPIEVVLEAVHKLKYENYTSSFFIRDIIKPDPPKNLQLKPLKNSRHVEVSWGYPDTWSTPHSYFSLTFCIQVQGKSKREKKDRIFTDKTSATVICRKNAKIRVQARDRYYSSFWSEWASVSCS
notes: Recombinant (shuffled) p40 variant; the mature region is stated as residues 23-324; also called p40C2-22
B4: wild-type human p35 polypeptide with C-terminal EHtag (ligand)
chain: RNLPVATPDPGMFPCLHHSQNLLRAVSNMLQKARQTLEFYPCTSEEIDHEDITKDKTSTVEACLPLELTKNESCLNSRETSFITNGSCLASRKTSFMMALCLSSIYEDLKMYQVEFKTMNAKLLMDPKRQIFLDQNMLAVIDELMQALNFNSETVPQKSSLEEPDFYKTKIKLCILLHAFRIRAVTIDRVTSYLNASAAAGAPVPYPDPLERAAAHHHHHH
notes: wt-p35 with the EHtag fused to its C-terminus; also called wt-p35-EHtag
B5: modified p40 polypeptide B8-96 (ligand)
chain: IWELEKNVYVVELDWYPDAPGEMVVLACDTPEEDGITWTSDQSSEVLGTGKTLTIHVKEFGDAGQYTCRKGGAVLSQSLLLLHKKEDGIWSTDILKDQKEPKNKSFLKCEAKNYSGRFTCWWLTTISTDLKFSVKSSRGSSDPRGVTCGAALLSAEKVSLEHREYKKYRVECQEGSACPAAEESLPIEVVLEAVHKLKYENYTSSFFIRDIIKPDPPKNLQLRPLKNSRQVEVNWEYPDTWSTPHSYFSLTFCVQVQGKNKREKKLFMDQTSAKVTCHKDAKIRVQARDRYYSSSWSEWASVPCS
B6: modified p40 polypeptide B1-81 (ligand)
chain: IWELEKNVYVVELDWYPDAPGETVVLACDTPEEDGITWTSDQSSEVLGTGKTLTIHVKEFGDAGQYTCRKGGAVLSQSLLLLHKKEDGIWSTDILKDQKKPKNKIFLKCEAKNYSGRFTCWWLTAISTDLKFTVKSSRGSSDPQGVTCGAVTLSAERVSMDHREYNKYTVECQEGSACPSAEESLPIEVVVDAIHKLKYENYTSRFFIRDIIKPDPPKNLQLRPLKNSRHVEISWEYPDTWSTPHSYFSLTFCVQVQGKNKREKKLFMDQTSAKVTCHKDAKIRVQARDRYHSSSWSEWASVPCS
B7: modified p40 polypeptide B2-52 (ligand)
chain: IWELEKNVYVVELDWYPDAPGEMVVLACDTPEEDGITWTSDQSSGVLGTGKTLTIHVKEFGDAGQYTCRKGGAVLSQSLLLLHKKEDGIWSTDILKDQKEPKAKSFLKCEAKDYSGHFTCWWLTTISTDLKFSVKSSRGSSDPQGVTCGAVTLSAERVSMDHREYNKYTVECQEGSACPSAEESLPIEVVVDAIHKLKYENYTSSFFIRDIIKPDPPKNLQLRPLKNSRQVEVNWEYPDTWSTPHSYFSLTFCVQVQGKNKREKKLFMDQTSAKVTCHKDAKIRVQARDRYYSSSWSEWASVPCS
B8: modified p40 polypeptide A16-94 (ligand)
chain: IWELKKDVYVVELDWYPDAPGEMVVLACDTPEEDGITWTSDQSSEVLGTGKTLTIHVKEFGDAGQYTCHKGGTVLSQSLLLLHKKEDGIWSTDILKDQKEPKNKSFLKCEAKNYSGRFTCWWLTAISTDLKFTVKSSRGSTDPRGVTCGTATLSEDLGEYKKYRVECQEGSACPAAEESLPIEVVLEAVHKLKYENYTSSFFIRDIIKPDPPKNLQLRPLKNSRHVEVSWEYPDTWSAPHSYFSLTFGVQVQGRNKREDRLFMDQTSAKVVCHKDAKIRVQARDRYYSSSWSEWASVSLQSV

Experiments:
[1] = target: T1, wild-type human p40 polypeptide; assay: immunoblot with anti-p35 mAB of COS-7 culture medium; ~70 kDa p40/p35 heterodimer band, control (FIG. 7)
[2] = target: B1; assay: immunoblot with anti-p35 mAB of COS-7 culture medium; ~70 kDa p40/p35 heterodimer band (FIG. 7)
[3] = target: T2, modified p35 polypeptide R2-571 with …; assay: Western blot with anti-E tag mAB of heterodimer purified on an anti-E affinity column through the p35 EHtag (FIG. 14)
Description: (§1) Co-expressing in mammalian cells a modified p40 nucleic acid of the invention plus a modified p35 nucleic acid of the invention produces a substantially more homogenous heterodimeric protein than the heterodimeric protein produced by co-expressing a wt-p40 nucleic acid and a wt-p35 nucleic acid. […] Both the modified p35 nucleic acid and the wt-p35 nucleic acid also comprised a C-terminal EHtag coding sequence.

[4] = target: T1, wild-type human p40 polypeptide; assay: as above
Description: as §1

| binding result [2] | Binder | other results |
| --- | --- | --- |
| – | B1 | binding result [1]: binds |
| binds | B2 | – |
| binds | B3 | binding result [3]: binds |
| – | B4 | binding result [4]: binds |
| binds | B5 | – |
| binds | B6 | – |
| binds | B7 | – |
| binds | B8 | – |

Reference: US20060264615A1 (MAXYGEN, published 2006)
